# Entries after “also recorded” stand apart in the source; their conditions may differ.
# B1: GDNF: recombinant glial cell line-derived neurotrophic factor from Cephalon Inc. (baculovirus-infected insect cells) or R&D Systems, Inc. (mouse myeloma NSO) (protein, UniProt P39905 78-211, looked up)
# Glial cell line-derived …: SPDKQMAVLPRRERNRQAAAANPENSRGKGRRGQRGKNRGCVLTAIHLNVTDLGLGYETKEELIFRYCSGSCDAAETTYDKILKNLSRNRRLVSDKVGQACCRPIAFDDDLSFLDDNLVYHILRKHSAKRCGCI
# Assays:
# [1] = system: MET; experiment: MET phosphorylation in MDCK cells (immunoprecipitation, Western blotting); assay type: cell-based, dog
# Method: (§1) To detect MET activation, GFRα1- and RET/GFRα1-expressing MDCK or SHEP cells were starved overnight in MEM or RPMI 1640 with 1% FCS, respectively, and in serum-free medium for 2 h prior the induction. After 15 min incubation at 37° C. with GDNF (at indicated concentrations) or with 50 ng/ml HGF, cells were lysed as described. Cleared cell lysates were incubated with anti-MET antibodies (Santa Cruz Biotechnologies, Inc.) overnight at 4° C. Immunoprecipitates were collected with protein A-SEPHAROSE (Amersham Pharmacia Biotech), washed, separated by SDS-PAGE and transferred to HYBOND-ECL membranes. Membranes were immunoblotted with anti-phospho-tyrosine antibodies (Upstate Group Inc.) or anti-MET antibodies.
# Alternatively, 30 μg of protein was incubated overnight at 4° C. with 10 μl Immobilized Phospho-Tyrosine Monoclonal Antibodies (Cell Signalling, NEB). Immunocomplexes were washed and analysed as described.
# For all experiments, densitometry and quantifications were performed using TINA 2.0 program (Raytest, Straubenhardt, Germany).
# For the inhibition of MET, and Src activation, SHEP or GFRα1- and RET/GFRα1-expressing MDCK cells were starved as described above. 1 or […] of the inhibitor PP2 (Calbiochem) was added 30 min before induction by GDNF or HGF. DMSO (dimethyl sulfoxide) was added to the positive controls together with GDNF or HGF.
# [2] = molecular target: T1, RET (UniProt P07949+Q62997); experiment: RET phosphorylation in RET/GFRα1-expressing MDCK cells; assay type: cell-based, dog
# T1 construct: expressed in transfected cells
# T1 sequence (P07949 29-1114): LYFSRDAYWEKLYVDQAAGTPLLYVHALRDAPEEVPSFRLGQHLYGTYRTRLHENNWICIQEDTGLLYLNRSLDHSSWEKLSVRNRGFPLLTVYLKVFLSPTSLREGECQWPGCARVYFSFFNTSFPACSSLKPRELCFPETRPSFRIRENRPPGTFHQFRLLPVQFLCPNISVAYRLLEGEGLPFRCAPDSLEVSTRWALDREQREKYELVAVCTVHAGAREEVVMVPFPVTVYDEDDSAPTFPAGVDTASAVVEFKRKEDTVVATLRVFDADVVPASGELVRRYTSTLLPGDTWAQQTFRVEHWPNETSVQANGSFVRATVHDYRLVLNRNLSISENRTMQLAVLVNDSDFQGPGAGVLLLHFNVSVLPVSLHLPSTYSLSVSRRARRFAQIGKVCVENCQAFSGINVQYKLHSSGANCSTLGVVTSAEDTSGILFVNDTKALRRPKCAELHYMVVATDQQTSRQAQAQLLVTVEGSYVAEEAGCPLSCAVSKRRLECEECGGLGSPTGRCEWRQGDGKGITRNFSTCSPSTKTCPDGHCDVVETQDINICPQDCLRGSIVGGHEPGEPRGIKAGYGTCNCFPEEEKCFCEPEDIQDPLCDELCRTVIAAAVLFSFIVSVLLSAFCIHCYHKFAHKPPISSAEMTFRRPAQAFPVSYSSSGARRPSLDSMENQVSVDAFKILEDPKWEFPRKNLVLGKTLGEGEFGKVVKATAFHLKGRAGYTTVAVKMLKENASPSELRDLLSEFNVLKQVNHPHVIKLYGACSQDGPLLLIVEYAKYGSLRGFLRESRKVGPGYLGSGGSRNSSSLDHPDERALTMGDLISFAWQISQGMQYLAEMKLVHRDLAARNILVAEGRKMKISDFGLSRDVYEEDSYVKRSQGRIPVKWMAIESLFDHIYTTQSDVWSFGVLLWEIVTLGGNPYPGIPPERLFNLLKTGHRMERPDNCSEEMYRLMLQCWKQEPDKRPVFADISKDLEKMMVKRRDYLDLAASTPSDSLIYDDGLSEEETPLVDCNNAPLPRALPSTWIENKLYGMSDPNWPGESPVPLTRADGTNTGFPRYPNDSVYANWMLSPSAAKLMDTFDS
# T1 sequence (Q62997 25-430 limits assumed): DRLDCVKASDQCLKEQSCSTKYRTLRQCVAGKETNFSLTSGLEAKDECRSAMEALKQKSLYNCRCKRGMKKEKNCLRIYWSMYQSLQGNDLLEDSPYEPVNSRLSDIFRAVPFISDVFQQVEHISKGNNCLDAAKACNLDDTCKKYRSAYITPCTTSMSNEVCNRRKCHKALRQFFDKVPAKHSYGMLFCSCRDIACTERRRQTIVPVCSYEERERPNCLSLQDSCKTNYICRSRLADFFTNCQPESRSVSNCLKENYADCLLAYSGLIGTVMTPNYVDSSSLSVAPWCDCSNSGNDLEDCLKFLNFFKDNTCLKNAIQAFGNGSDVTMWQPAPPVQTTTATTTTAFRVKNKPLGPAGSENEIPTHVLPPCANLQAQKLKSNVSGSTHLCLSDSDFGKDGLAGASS
# Method: FIG. 4D: Dose-dependent activation of RET by GDNF in RET/GFRα1-expressing MDCK cells. […]. […] The numbers below the lanes indicate the fold of induction of RET tyrosine kinase. IP, immunoprecipitation; WB, Western blotting; P-tyr, phospho-tyrosine. The results are representative of three independent experiments.
# as §1
# The above procedure was also followed to detect RET phosphorylation in RET/GFRα1-expressing MDCK, however, for these experiments, anti-RET antibodies (Santa Cruz Biotechnologies, Inc.) were used for the immunoprecipitation and immunoblotting.
# [3] = system: wild-type MDCK cells; experiment: Branching tubule formation assay in 3-D collagen gel; assay type: cell-based, dog
# Method: (§2) From the total amount of cysts in the field, the percentage of cysts with long branches was calculated. Only branches with lengths of more than two cyst diameters were counted.
# (§3) Trypsinized cells were mixed 1:3 with collagen type I solution and plated. MEM with 10% FCS was overlaid on the gels with or without GDNF (Cephalon Inc. or R&D Systems, Inc.) or 50 ng/ml HGF. Cells in collagen were cultured for 3 days; GDNF-containing medium was changed daily. For quantification, cells were cultured for 3 days, fixed by 3% glutaraldehyde in PBS and counted under a light microscope.
# (§4) To avoid the effect of possible contamination of GDNF preparation, recombinant GDNF from two different sources were tested. One tested GDNF was expressed in baculovirus-infected insect cells (Cephalon Inc.), the other was expressed in mouse myeloma cell line NSO (R&D Systems, Inc.).
# [4] = system: RET/GFRα1-expressing MDCK cells; experiment: as above; assay type: cell-based, dog
# Method: as §2
# (§5) FIG. 2C: Dose-dependence of GDNF-induced branching of GFRα1- and RET/GFRα1-expressing MDCK cells. GDNF concentrations are per ml (x-axis). Results are reported as fold of branching cysts count over the non-induced control. Means±standard errors of the mean of five to eight counted fields are shown. The results are representative of five (A and B) and three (C) independent experiments, p<0.001.
# as §3, §4
# [5] = system: GFRα1-expressing MDCK cells; experiment: as above; assay type: cell-based, dog
# Method: as §2, §5, §3, §4
# [6] = system: MET; experiment: MET activation in GFRα1-transfected NIH 3T3 fibroblasts; assay type: cell-based
# [7] = system: MET; experiment: MET phosphorylation in Neuro-2A neuroblastoma cells; assay type: cell-based
# [8] = system: MET; experiment: MET activation in GFRα1-transfected COS7 cells; assay type: cell-based
# [9] = system: ret −/−, ret +/− and ret +/+ kidney explants; experiment: Ureteric branching in cultured E11 urogenital block explants; design: species or system mouse
# Method: FIG. 8A-FIG. 8D: Urogenital blocks including the Wolffian duct (wd), mesonephros (meso) and metanephros (meta) were dissected from E11 ret −/− (panels A, B), ret +/− (panel C) and ret +/+ (panel D) mouse embryos. The two urogenital blocks from the embryos were separately cultured for 4 days. One side was cultured without GDNF (panels A, C, D) and the other side with 50 ng/ml of GDNF (panel B). Urogenital block explants were fixed and immunostained with pan-cytokeratin antibodies. Scale bar: 200 μm.
# FIG. 8E: The number of ureteric branches of ret −/−, ret +/− and ret +/+ kidneys with or without GDNF supplementation. Numbers in parenthesis indicate the kidney explants counted. […] Each result represents the mean±SEM (n=5).
# To analyze the possible role of RET-independent, GFRα1-mediated signaling in ureteric budding and branching during nephrogenesis, the ability of exogenous GDNF to induce ureteric budding or sustain its branching in ret-deficient mice was tested. E11 ret −/− urogenital blocks including kidney rudiments were cultured for 4 days with or without 50 ng/ml of GDNF (FIG. 8). […] Thus, RET-independent signaling by GDNF has an apparent role in the ureteric branching, but may be less significant in the primary bud formation.
# [10] = ligand 100 ng/ml, 3-D collagen gel
molecule,measurement,setting,value
B1,MET phosphorylation,[1]; GFRα1- and Ret/GFRα1-expressing MDCK cells,evoked MET phosphorylation
same,GDNF concentration at which MET activation reached saturation,"[1]; GFRα1- and Ret/GFRα1-expressing MDCK cells, 15 min",0.1 pg/mL
same,time to MET activation,[1]; GFRα1-expressing and RET/GFRα1-expressing MDCK cells,≤ 15 min
same,duration of MET activation,"[1]; GFRα1-expressing and RET/GFRα1-expressing MDCK cells, data not shown",at least 2 hours
same,concentration at which MET is saturated,"[1]; GFRα1-expressing and RET/GFRα1-expressing MDCK cells, printed as 4 fM (0.1 pg/ml)",4 fM
same,MET phosphorylation,[1]; wild type MDCK cells,but not in wild type MDCK cells
same,GDNF concentration at which RET phosphorylation reached saturation,[2],10 ng/mL
same,GDNF concentration at which RET phosphorylation was observed,[2],0.1 pg/mL
same,time to RET activation,[2]; data not shown,≥ 2 h
same,branching tubule formation,[3]; [10],did not
same,branching tubule formation,[3]; mock-transfected MDCK cells used as controls,did not from branching tubules
same,GDNF concentration at which cells started to branch,"[4]; cells co-expressing RET and GFRα1, dose-response FIG. 2C",0.1 ng/mL
same,branching tubule formation,[4]; [10],formed branching tubules
same,GDNF concentration that evoked tubulogenesis,"[5]; cells expressing GFRα1 but not RET, dose-response FIG. 2C",0.1 pg/ml
same,branching tubule formation,[5]; [10],formed branching tubules
same,branching tubulogenesis,"[5]; wild-type MDCK transduced with an adenovirus expressing GFRα1, data not shown",induced branching tubulogenesis
same,MET activation,[6],takes place
same,MET phosphorylation,[7],induced MET phosphorylation
same,MET activation,[8],takes place
same,number of ureteric bud tips,"[9]; ret +/− explants, GDNF 50 ng/ml, 4 days culture",increased the number of ureteric bud tips
same,number of ureteric bud tips / ureteric branching,"[9]; ret −/− explants, GDNF 50 ng/ml, 4 days culture",increased but not to the level seen in wild type kidneys; also recorded: significantly increased ureteric branching
same,number of urogenital explants completely lacking a ureteric bud,"[9]; ret −/− explants, with or without exogenous GDNF",remained the same
same,number of ureteric bud tips,"[9]; wild-type explants, GDNF 50 ng/ml, 4 days culture",increased the number of ureteric bud tips

# — patent publication US20080070264A1, “Intracellular Signaling-Induced Ret-Independent Gdnf Receptor-Effected Morphological Changes” (JPMORGAN CHASE BANK N.A., priority 2003, published 2008)
